Test results as given in US20120095193A1 (published 2012).
Values belong to the binder of their own block, whether it stands above or below them.

Key:
[1] = molecular target: T1, human ADAMTS5 (human, UniProt Q9UNA0 262-622, limits assumed); test: ELISA on coated recombinant human ADAMTS5 (0.2 ug/ml), antibody in culture supernatant, anti human kappa peroxidase, OD 490 nm
T1 construct: Octet and ELISA used 'recombinant human ADAMTS5'; also called recombinant human ADAMTS5; ADAMTS5 (R&D Systems 2198-AD)
T1 sequence: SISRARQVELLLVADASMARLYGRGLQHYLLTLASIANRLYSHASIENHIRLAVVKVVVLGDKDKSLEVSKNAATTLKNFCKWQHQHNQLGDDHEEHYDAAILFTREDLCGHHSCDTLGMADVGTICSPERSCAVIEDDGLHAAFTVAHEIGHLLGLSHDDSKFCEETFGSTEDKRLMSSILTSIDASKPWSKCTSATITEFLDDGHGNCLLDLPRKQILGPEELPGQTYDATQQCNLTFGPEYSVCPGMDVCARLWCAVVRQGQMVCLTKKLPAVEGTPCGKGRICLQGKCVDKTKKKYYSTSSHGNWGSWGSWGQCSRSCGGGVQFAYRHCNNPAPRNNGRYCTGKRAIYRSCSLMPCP
Method: A binding ELISA was carried out to test the binding of the expressed antibodies in cell culture supernatant to recombinant ADAMTS5. ELISA plates were coated with recombinant human ADAMTS5 at 0.2 μg/ml and blocked with blocking solution (4% BSA in Tris buffered saline). Various dilutions of the tissue culture supernatants were added and the plate was incubated for 1 hour at room temperature before washing in TBST. Binding was detected by the addition of a peroxidase labelled anti human kappa light chain antibody (Sigma A7164) at a dilution of 1/1000 in blocking solution. The plate was incubated for 1 hour at room temp before washing in TBST. The plate was developed by addition of OPD substrate (Sigma P9187) and colour development stopped by addition of 2M H₂SO₄. Absorbance was measured at 490 nm with a plate reader and the mean absorbance plotted against concentration.

[2] = molecular target: T1, human ADAMTS5; test: Biacore T100, CHO-expressed mAb captured on Protein A, ADAMTS5 (R&D 2198-AD) 0.0625-64 nM, 1:1 fit
Method: (§1) Protein A was immobilized on a CM5 biosensor chip by primary amine coupling. This surface was used to capture the Fc disabled anti-ADAMTS5 antibody, 12F4 H4L0 IgG1m(AA) (BPC1661), (CHO and HEK expressed material). Recombinant human ADAMTS5 (R&D Systems 2198-AD) was used as the analyte at 64 nM, 16 nM, 4 nM, 1 nM, 0.25 nM and 0.0625 nM, with a buffer injection (i.e. 0 nM) used to double reference the binding curves. Regeneration of the capture surface (i.e. removal of the captured antibody) was with 50 mM NaOH. The running buffer was HBS-EP and the run was carried out on the Biacore T100 at 25° C. The data was fitted to the 1:1 model inherent to the machines analysis software.

[3] = molecular target: T1, human ADAMTS5; test: Biacore T100, HEK-expressed mAb captured on Protein A, ADAMTS5 (R&D 2198-AD) 0.0625-64 nM, 1:1 fit
Method: as §1

[4] = molecular target: T1, human ADAMTS5; test: cell-based or functional assay
[5] = molecular target: Human MMP13 (human, UniProt P45452 20-471, limits assumed); test: celTRF and Octet QK cross-reactivity
[6] = molecular target: T2, Human ADAMTS4 (human, UniProt O75173 213-685, limits assumed); test: celTRF and Octet QK cross-reactivity
T2 construct: also called aggrecanase-1
T2 sequence: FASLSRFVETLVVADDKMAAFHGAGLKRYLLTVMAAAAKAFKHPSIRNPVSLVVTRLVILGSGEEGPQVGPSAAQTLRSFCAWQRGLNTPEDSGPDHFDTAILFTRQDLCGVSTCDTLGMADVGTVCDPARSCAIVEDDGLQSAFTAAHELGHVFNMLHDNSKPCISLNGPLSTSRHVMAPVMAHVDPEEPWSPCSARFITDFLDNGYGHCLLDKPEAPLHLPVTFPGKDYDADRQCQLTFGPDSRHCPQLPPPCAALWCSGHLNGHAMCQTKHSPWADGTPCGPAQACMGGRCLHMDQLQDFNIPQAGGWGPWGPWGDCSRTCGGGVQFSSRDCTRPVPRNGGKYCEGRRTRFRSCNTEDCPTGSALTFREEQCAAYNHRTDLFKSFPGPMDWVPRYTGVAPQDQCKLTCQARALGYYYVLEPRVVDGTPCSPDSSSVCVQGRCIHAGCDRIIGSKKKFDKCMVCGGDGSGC

[7] = molecular target: T3, Human ADAMTS13 (human, UniProt Q76LX8 75-685, limits assumed); test: celTRF and Octet QK cross-reactivity
T3 sequence (looked up): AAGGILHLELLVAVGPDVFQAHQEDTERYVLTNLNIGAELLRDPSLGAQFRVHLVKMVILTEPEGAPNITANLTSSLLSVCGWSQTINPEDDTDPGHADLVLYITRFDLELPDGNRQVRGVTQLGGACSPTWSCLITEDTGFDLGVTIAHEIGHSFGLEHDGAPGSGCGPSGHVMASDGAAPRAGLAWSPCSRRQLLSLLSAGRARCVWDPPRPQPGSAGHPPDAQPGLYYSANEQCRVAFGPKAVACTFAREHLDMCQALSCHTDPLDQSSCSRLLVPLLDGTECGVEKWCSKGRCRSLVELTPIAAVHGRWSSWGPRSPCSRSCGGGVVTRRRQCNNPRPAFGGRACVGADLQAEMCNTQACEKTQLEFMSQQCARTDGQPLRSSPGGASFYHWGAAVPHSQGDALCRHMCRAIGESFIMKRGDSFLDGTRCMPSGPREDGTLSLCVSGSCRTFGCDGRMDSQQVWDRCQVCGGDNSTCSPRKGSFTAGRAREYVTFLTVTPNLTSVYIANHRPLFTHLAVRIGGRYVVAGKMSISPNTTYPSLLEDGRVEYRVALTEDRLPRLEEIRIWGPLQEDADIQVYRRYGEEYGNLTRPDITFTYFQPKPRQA

[8] = molecular target: T4, Human MMP1 (human, UniProt P03956 20-469, limits assumed); test: celTRF and Octet QK cross-reactivity
T4 sequence (looked up): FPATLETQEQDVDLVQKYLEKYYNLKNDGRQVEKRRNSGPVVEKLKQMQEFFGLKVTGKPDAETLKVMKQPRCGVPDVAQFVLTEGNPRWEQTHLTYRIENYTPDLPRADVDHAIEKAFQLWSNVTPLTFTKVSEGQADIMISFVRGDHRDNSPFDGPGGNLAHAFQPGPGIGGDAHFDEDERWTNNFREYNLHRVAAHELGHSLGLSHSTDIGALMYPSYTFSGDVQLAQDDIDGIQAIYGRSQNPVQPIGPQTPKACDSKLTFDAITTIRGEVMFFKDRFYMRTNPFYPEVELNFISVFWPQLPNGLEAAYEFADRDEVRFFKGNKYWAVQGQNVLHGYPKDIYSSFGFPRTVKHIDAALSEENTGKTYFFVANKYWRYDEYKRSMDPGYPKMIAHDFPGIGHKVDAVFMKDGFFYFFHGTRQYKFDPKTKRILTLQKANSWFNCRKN

[9] = molecular target: T5, Human ADAMTS1 (human, UniProt Q9UHI8 253-967, limits assumed); test: celTRF and Octet QK cross-reactivity
T5 sequence (looked up): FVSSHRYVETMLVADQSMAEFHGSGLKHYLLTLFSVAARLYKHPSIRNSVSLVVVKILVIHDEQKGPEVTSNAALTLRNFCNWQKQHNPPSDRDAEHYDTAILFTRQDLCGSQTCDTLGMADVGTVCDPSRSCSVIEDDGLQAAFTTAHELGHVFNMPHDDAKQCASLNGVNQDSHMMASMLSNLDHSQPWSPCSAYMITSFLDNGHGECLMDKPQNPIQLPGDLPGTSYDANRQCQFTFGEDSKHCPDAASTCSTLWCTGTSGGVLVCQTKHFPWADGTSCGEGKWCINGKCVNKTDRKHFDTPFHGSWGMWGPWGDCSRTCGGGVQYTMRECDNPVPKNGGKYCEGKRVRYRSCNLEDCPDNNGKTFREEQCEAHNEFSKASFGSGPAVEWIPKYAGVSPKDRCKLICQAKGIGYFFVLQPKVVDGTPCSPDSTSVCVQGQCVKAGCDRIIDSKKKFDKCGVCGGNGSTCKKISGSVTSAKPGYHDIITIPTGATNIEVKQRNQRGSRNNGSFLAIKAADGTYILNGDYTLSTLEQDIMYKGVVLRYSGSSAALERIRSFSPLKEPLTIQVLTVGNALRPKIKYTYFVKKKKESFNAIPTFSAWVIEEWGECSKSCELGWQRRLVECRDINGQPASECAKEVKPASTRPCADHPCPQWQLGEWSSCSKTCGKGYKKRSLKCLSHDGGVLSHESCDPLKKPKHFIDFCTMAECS

[10] = molecular target: Human MMP9 (human, UniProt P14780 20-707, limits assumed); test: celTRF and Octet QK cross-reactivity
Chain of Human MMP9 (P14780 20-707 limits assumed): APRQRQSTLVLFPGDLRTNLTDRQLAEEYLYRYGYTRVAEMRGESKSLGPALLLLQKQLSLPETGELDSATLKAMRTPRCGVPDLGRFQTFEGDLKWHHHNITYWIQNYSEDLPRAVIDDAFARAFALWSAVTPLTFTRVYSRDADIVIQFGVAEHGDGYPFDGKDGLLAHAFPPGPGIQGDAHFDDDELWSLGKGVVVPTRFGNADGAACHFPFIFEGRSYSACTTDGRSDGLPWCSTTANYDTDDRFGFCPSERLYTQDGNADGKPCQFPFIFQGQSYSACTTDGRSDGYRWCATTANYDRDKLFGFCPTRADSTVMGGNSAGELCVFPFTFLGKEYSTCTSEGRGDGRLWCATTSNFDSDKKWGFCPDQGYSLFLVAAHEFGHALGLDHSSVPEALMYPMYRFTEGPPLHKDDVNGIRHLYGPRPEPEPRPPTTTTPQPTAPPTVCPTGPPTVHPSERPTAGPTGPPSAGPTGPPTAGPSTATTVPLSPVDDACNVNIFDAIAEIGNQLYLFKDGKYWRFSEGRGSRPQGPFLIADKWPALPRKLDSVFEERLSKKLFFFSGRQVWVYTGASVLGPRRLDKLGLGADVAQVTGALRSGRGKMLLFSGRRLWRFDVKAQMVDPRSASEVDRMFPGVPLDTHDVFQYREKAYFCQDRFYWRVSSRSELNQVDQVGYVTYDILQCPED

[11] = molecular target: Human MMP3 (human, UniProt P08254 18-477, limits assumed); test: celTRF and Octet QK cross-reactivity
Chain of Human MMP3 (P08254 18-477 limits assumed): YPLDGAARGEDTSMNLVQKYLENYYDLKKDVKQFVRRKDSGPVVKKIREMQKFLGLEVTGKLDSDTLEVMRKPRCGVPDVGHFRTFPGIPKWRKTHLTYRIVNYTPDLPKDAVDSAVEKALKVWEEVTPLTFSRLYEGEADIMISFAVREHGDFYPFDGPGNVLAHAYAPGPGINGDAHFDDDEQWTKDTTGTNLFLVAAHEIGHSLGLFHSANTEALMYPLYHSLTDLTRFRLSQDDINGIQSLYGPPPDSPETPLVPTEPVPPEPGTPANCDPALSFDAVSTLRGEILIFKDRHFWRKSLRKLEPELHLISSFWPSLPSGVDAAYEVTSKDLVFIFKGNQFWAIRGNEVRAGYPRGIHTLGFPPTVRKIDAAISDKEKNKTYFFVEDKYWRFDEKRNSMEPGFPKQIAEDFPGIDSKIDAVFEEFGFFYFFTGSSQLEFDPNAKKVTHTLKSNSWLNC

[12] = molecular target: T1, human ADAMTS5; test: Octet QK, antigen down, incl avidity
[13] = molecular target: T1, human ADAMTS5; test: Octet QK, purified mAb
[14] = molecular target: T1, human ADAMTS5; test: Biacore, mAb down, no avidity
[15] = molecular target: T1, human ADAMTS5; test: Octet QK, purified murine mAb

B3: 7B4.1E11 (antibody, IgG1, V domains shown)
VH: EVKLEESGGGLVQPGGSMKLSCAASGFTSSDAWMDWVRQSPEKGLEWVAEIRNKANNHARHYAESVKGRFTISRDDSKSSVYLQMNSLRAEDSGIYYCTRTYYYGSSYGYCDVWGTGTTVTVSS
VL: DIQMTQSPASLSASVGETVTITCRTSENIYSYLAWYQQKQGKSPQLLVYNAKTLAEGVPSRFSGSGSGTQFSLKINSLQPEDFGSYSCQHHYGTPWTFGGGTKLEIKR
notes: also called Murine 7B4.1E11
Aggrecan Substrate Cleavage Neutralization IC50 [4]: 0.08 nM | binding result [5]: no binding | binding result [6]: no binding | binding result [7]: no binding | binding result [8]: no binding | binding result [9]: no binding | binding result [10]: no binding | binding result [11]: no binding | Kd [12]: 0.28 nM | Kd [13]: 0.358 nM | Kd [14]: 0.483 nM | Kd [15]: 0.899 nM

B4: 12F4.1H7 (antibody, IgG2, V domains shown)
VH: EVKLEESGGGLVQPGGSMKLSCTASGFTFSDAWMDWVRQSPEKGLEWVAEIRHKANDHAIFYDESVKGRFTISRDDSKNIVYLQMNSLRPEDTGIYYCTSPFAYWGQGTLVTVSA
VL: DIVMTQSQKFMSVTVGDRVSITCKASQSVGTTIVWYQQKPGQSPKLLIYSASNRHTGVPDRFTGSGSGTDFILTINNVQSEDLADYFCQQYTSYPFTFGSGTKLEIKR
notes: also called Murine 12F4.1H7
Aggrecan Substrate Cleavage Neutralization IC50 [4]: 0.06 nM | binding result [5]: no binding | binding result [6]: no binding | binding result [7]: no binding | binding result [8]: no binding | binding result [9]: no binding | binding result [10]: no binding | binding result [11]: no binding | Kd [12]: 0.0356 nM | Kd [13]: 0.0685 nM | Kd [14]: 0.067 nM | Kd [15]: 0.436 nM

Further lines, results first:

binding result [1]: no binding (tested: about 2.5 ug/ml)
B1: BPC1655 (antibody, human IgG1, kappa, V domains shown)
VH: EVQLLESGGGLVQPGGSLRLSCAASGFTFSDAWMDWVRQAPGKGLEWVSEIRHKANDHAIFYDESVKGRFTISRDNSKNTLYLQMNSLRAEDTAVYYCAKPFAYWGQGTLVTVSS
VL: DIQMTQSPSSLSASVGDRVTITCKASQSVGTTIVWYQQKPGKAPKLLIYSASNRHTGVPSRFSGSGSGTDFTLTISSLQPEDFATYYCQQYTSYPFTFGQGTKLEIKR
notes: Humanized, human gamma 1 / kappa; also called 12F4 H0L0

Kd [2]: 0.07 nM | Kd [3]: 0.074 nM
B2: BPC1661 (antibody, human IgG1, kappa)
heavy: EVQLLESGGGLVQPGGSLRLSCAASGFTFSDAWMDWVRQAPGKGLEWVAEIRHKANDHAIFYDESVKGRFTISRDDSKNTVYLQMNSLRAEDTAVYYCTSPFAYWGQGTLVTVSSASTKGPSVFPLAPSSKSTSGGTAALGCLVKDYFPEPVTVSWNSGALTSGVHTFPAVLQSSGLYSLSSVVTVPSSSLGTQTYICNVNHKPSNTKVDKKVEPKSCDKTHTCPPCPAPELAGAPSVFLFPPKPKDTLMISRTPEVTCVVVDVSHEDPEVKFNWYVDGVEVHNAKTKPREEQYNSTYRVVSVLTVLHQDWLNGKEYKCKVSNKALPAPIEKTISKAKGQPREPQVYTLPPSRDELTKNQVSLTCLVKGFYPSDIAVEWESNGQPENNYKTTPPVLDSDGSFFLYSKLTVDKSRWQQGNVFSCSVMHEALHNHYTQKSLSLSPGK
light: DIQMTQSPSSLSASVGDRVTITCKASQSVGTTIVWYQQKPGKAPKLLIYSASNRHTGVPSRFSGSGSGTDFTLTISSLQPEDFATYYCQQYTSYPFTFGQGTKLEIKRTVAAPSVFIFPPSDEQLKSGTASVVCLLNNFYPREAKVQWKVDNALQSGNSQESVTEQDSKDSTYSLSSTLTLSKADYEKHKVYACEVTHQGLSSPVTKSFNRGEC
notes: HEK- and CHO-expressed material was tested; also called 12F4 H4L0 IgG1m(AA); Fc disabled anti-ADAMTS5 antibody
